Assay: soluble on expression in E. coli; label from the status in PepcDB or PDB records

Sequence	soluble on expression in E. coli
MGSDKIHHHHHHMRMAQVVLENVTKVYENKVVAVKNANLVVEDKEFVVLLGPSGCGKTTTLRMIAGLEEITDGKIYIDGKVVNDVEPKDRDIAMVFQNYALYPHMTVYENMAFGLKLRKYPKDEIDRRVREAAKILGIENLLDRKPRQLSGGQRQRVAVGRAIVRNPKVFLFDEPLSNLDAKLRVQMRSELKKLHHRLQATIIYVTHDQVEAMTMADKIVVMKDGEIQQIGTPHEIYNSPANVFVAGFIGSPPMNFVNARVVRGEGGLWIQASGFKVKVPKEFEDKLANYIDKEIIFGIRPEDIYDKLFALAPSPENTITGVVDVVEPLGSETILHVKVGDDLIVASVNPRTQAKEEQKIDLVLDMTRMHAFDKETEKAII	not soluble
MENTNEAAWILSIDKFRHNEGIINFSDQNRETAYHHTIKEINVALDNFSTKAGDNNMHLVKAKTSQGTELNWHGKFSLSPLKSSGDISFVSPLKIVSDYLQQRILFNITEGSLKVNSHYDFNFAGEQPQFIINNLMASISALEIRSRDDNKKIITSDELSVDLEQLSSLEHHHHHH	not soluble
MGSDKIHHHHHHMHAWESIQITLDLIEANLSEEISINELANKANLSPFYYQRLFKRLVNKTVMEYIKLRRLARASEYLAEHKNRILDVALNFGFASHETFTRSFKKAYGLTPEKYRANPVKLNHFIKPELILNYAMVDEGVPLIADDIVIEVNRKTLSNPRTFVGIEIEVPICQLVGGETTGIAIVEELWMKLGSQRHNIPNQIPGGNEFAALYMGNAKEGNCMYMAGVEVESGTSVEGYSTFELPVKEYLVCGFEAENFNELVNSAVFKADKFMERWMKKHNLTTTDFAIEMYYPTTPEAAYLEHWIVPVPIEQ	not soluble
MGSDKIHHHHHHPAAVKKIIETGQTDNRVMHQLDILTNRFGGRVIGSDAYENAAEWMMREYKRWGIDVRLEEAGELPVGFNRGPWFGRLIGGDQAMDLHFVTPSYTSGTKGLQRGHVLIEPRTQEELDRMKHQLKGAWVLISGENVGWPVDRSAKGDSLRAAIKAENIEIEKQNAALMEENWSKGTKHAMKPLREMPGLFYKEMCEAGALGFIQSAPVPLRALYDRALLNDPHTTFDNLPEVCDIKLDEHQYKIIKQMVKERRNFWLEFDIRNHFKLGPVKYHNVVASIKGTKYPDEYVIISGHLDSYDVATGGIDCGTGIGPMMEAARMIALSGAKPKRTILFVAFAGEEFGLLGAKAYVKTHAKELGKIANLFNRDGGPTPPVGISVPQAMYDDFVEVCKPVKEIRADYPFEVKVAKPFKRPTQSGGTDASVFAVEGVPTFGFNTQDIKGYNFSYGEIWHTERDLYTKNIPEYQEHAATVTAVVALGIANLSKQLSREGMHKK	not soluble
SNSSPPPANSANGDTTNNGENGQDLNLNFLDKIRLSTKRDAKEDEGEELPTELNTINSAGGFLVVSPDKLSVKYTNTNLHGHDVGVVQANKPAPIKCLTYYFEIFVKDSGIKGQIAIGFTKESFKMRRQPGWEVNSCGYHGDDGYLYRGQGKGEPFGPKFTKDDAVGGGINYASQEFFFTKNGTIVGKIPKDIRGHLFPTVAVHSQNEEVLVNFGKKKFAFDIKGYEASERNKQQLAIEKISIPPNIGYGLVKTYLLHYGYEETLDAFNLATKNTVPPIHIDQENAIDEDDSSYALKQRKNLRQLVRNGEIDTALAELQKLYPQIVQDDKSVVCFLLHCQKFIELVRVGKLEEGVNYGRLELAKFVGLTGFQDIVEDCFALLAYEKPEESSVWYFLEDSQRELVADAVNAAILSTNPNKKDVQRSCHLQSHLEKLLRQLTVCCLERRSLNGDQGETFRLRHVLNNNR	soluble
ALSPPRRKSFKKWTPPRSPFNLVQEILFHDPWKLLIATIFLNRTSGKMAIPVLWEFLEKYPSAEVARAADWRDVSELLKPLGLYDLRAKTIIKFSDEYLTKQWRYPIELHGIGKYGNDSYRIFCVNEWKQVHPEDHKLNKYHDWLWENHEKLSLS	soluble
IQVFVKNPDGGSYAYAINPNSFILGLKQQIEDQQGLPKKQQQLEFQGQVLQDWLGLGIYGIQDSDTLILSKKKG	soluble
MITIKFDLNRYSCSWGAGGAFGGNRGLRPIPPEKGIFPLDHLHECDAVFFNKRFFL	not soluble
MGSDKIHHHHHHMLVFFKERLVLLSVPKTGTTAYQTALRARADIVVSDPPELKHAPIYRYDRFFRPIFEKMFGVEMEIMAVVREPVDWLGSWYRYRRRPFMQGKPNATHGLSFDDFVTAYMQGKRPGFANVGSQARFLTPRPNGCTVSHLFKYENQPGIRAFLQDRLQTEIAPPRENVSPDLPLDLSPEIAERLRRKCAEEFDLHASAT	not soluble
MSLEEWIKADSLEKADEYHKRYNYAVTNPVRRKILRMLDKGRSEEEIMQTLSLSKKQLDYHLKVLEAGFCIERVGERWVVTDAGKIVDKIRG	soluble
AIADFSENASGIPAEELAFPEIIELNVGGQVYITRYLTLTSVPDSLLWKMFSQKSSKDLARDTKGRFFIDRDGFLFRYILDYMRDQQLVLPEHFPEQGRLQREAEFFNLPELVQLLAPKISKQNTLGDDGCQTDQDESSPGANITCNLSSLGAYSSLGAATADGQRSGFITIGCRGSYTLGRDCQTDAKFRRVARIMVCGKTSLAKEVFGETLNESHDPDRQPDRYTSRYYLKFTSLEQAFDRLADAGFHMVACNSTGTCAFAHVQTDDKIWTSYNEYVFYRE	soluble
AKDDKVTVLSIERGNKLVYLEKLGLRGDQFYYKIERIRESNGVVYIYHTSYIPEQYINANYPNLEYYSSIYNRFKLDYHIHMNDEHFEEINEIVFPTPEHAASVLGVDEQFPTVLQTKITKLESTGQVLEYSETYKRSDYYKIKFISCDRDH	not soluble
MSLSLGISCFLVKKKSILNKDFESKEKLSSQTFEPEKVEKFLWDIYDKYGFDFTEYRKDSIIRRIKISMLRYCMTNFDEFSHLALTDQDVFEQLFLDFSINTTNFFRDPEVFMFLREKVLLFLDSYSHIRIWCVGCSNGKEPYSLAIILKELGMLHKVQIYATDINPYVIEEAKNGLYSVSTINTDIANYKKSGGSKNFTDYFEVNGNYMKVKDDFKDNILFFQHSVIEKGILNEFQMILCRNVMIYFDIPLQKKVLRHFYNSLDSGGFLVMGKSEGMLLNNGYEYFADYNEKYSVYRRKEGHHHHHH	not soluble
DRTIPDYTSFNTVDEWLDAIKMSQYKESFASAGFTTFDIVSQMTVEDILRVGVTLAGHQKKILNSIQVMRAQMNQ	soluble
MNSGDNIIKKKSFTFAVRIVNLYKVLSSEIKEFVMSKQLLRSGTSVGANIREALNAQSKPGFIHKLAISQKECDETGYTNNVEFESMNTDAIELLKIVRSIIMTSKKNIIHNSLEHHHHHH	not soluble
MNEKQKRFADEYIMNGCNGKKAAISAGYSKKTAESLASRLLRNVNVSEYIKERLEQIQEERLMSITEALALSASIARGEPQEAYSKKYDHLNDEVEKEVTYTITPTFEERQRSIDHILKVYGAYIDKKEITQKNIEINIGEYDDESLEHHHHHH	soluble
GPGSMTSPKIKAVFVDMDGTLFNSDHLISPRTAKVIHALEERGVAFVVATGRPFPDVFGNLAQTELRPDFIITSNGARVHDAQHNILFACDMDAESVCRLFQLSPHLSEDGVVDPSVQARRILCNVNCRDRWLTNECIPEVRAAFHPSFIYERVDPMVQTAKTLEGTHSMWIRGAHADLVCVQKYVDRELSGEIRCAFALPHILDCFRKDVNKGAAMEKVCKHLRIDLRETIAFGDGMNDIRMLTAAGQGFVMANAAEMVKQAAPELPVIQSNNEEGVAWKLEELLAADAFVG	soluble
MQQLKKIGFNEYEAKSYVSLVKQGPVTAYQVSKDSGVPRARIYEILGNLVEKGIVMKEEINDTTRYSPLPVEIFLQKAQSEWQSTYEGISDSLKKLETSEEKTDNRVITLKDNQTIISYCQALIKKAERRIVISMWDEMYEALKEDLSEVTDKVTIQGITLHVENPIKNLEAHRITPYTETLSTEHWFIVSIDSKEMIYGPSLAERNIAFYTDDPVHIYLLEDYVWHDVLVNRLVRRNQDDLQQWITAERKSFFMGK	not soluble
MSEEAEAGPSPKVNGENGNGTNTFDDLYVDDKMRRMIVDLQRQWLTDYHDSREKSLVALTEKLHQEFMEDQERVRRDLLVQFKIELDQTKEELEKKHAENLKEEIEKLSEKHQRELAVAKKKQWCWQCNSEAIYHCCWNTAYCSVECQQGHWQIHRKFCRRKKSNGGAPGPVQPIAEPTQSQQ	soluble
MAQEFSGDVFVISVAAELAGMHAQTLRTYDRLGLVTPQRTRGGGRRYSRDDVELLRTVQHLSQVEGVNLAGIKSIIELKKENAQLRKELAAARAEADVLKNRGARPRGEIVHVPRSTAVVMWQPRRSSRQHD	not soluble
MSAQVSLELHHRISQFLFHEASLLDDWKFRDWLAQLDEEIRYTMRTTVNAQTRDRRKGVQPPTTWIFNDTKDQLERRIARLETGMAWAEEPPSRTRHLISNCQISETDIPNVFAVRVNYLLYRAQKERDETFYVGTRFDKVRRLEDDNWRLLERDIVLDQAVITSHNLSVLF	soluble
MSVVSNHHSNGNGNSTVYDTNGNDEIKKEVKDEPMASDSEVPFGELMKRDKKEKKQKKRKAESGSDEDDYKPEKRKSSAKNGKKKDVGSDSEDDYKPEKKKSKKNNKKKAQESSEDDDEESEGDVSEEDVKPQIHSDDELEEEDEAPTTDDEEEQKRKEKERRKKEKREKKERKEKKRLEKENRKIKEEDDEDSDDEDDEKAKKKKRKSKGAEKSKPSTSKKDAGGKKEPPKKKVKKEEDIEDIWEWWKEEKKPAGVKWNSLQHCGPLFAPPYIPLPSHVHFKYGGEKMKLTLETEEIAQFYAGVLDHEYSTKEAFNKNFMKDWRKVMTVEERERIHDLKKCDFRAIDAYQKEQREIRKAMTKEEKLKIKEEKEAEVKIYGIAIIDGHRQKVANFRIEPPGVFRGRGGHPKMGLIKKRIMPEDVIINCGKDTEIPKPPPGHKWKEVRHDNTVTWLCSWTESVLGQNKYIMLNPSSKIKGEKDFEKYETARRLKKKIGGIRERYTDDFKSKEMRVRQRATALYFIDKLALRAGNEKDVDEAADTVGCCSLRVEHIKLFDSAKLNEDDKKEKEFVVEFDFLGKDSIRYFNRVSVEKRVYKNLKIFMEGKAPSDDLFDRLDTATLNDHLRSLMDGLTVKVFRTYNASITLQEQLIKLTNPKDNVAAKILSYNRANRQVAILCNHQRAVSKGFDESMQKLEQKIKDKKKEVKEAEAALKSARGAEKEKAQKKYDRLKEQLKKLKISRTDKDENKQIALGTSKLNYIDPRITVAWCKKFEVPLEKVFTKTHREKFRWAIDMTNSSDEEYVF	soluble
MGSDKIHHHHHHMTQTSSLVINSFREITVNHPLWSHEFLIRCRAGNLFLPDVQILAVQMYKFSKEFNRILASILSCCEDESSQLVILENLFDEMGQGDITQSHPELFRQFTRALGIDDETLAALPTAPETRALIETYLQIPHKYGYLAALGAVCYASEGIVSSLYTQLYKGIIGATPLPKEALIFFEVHIDVDDSHAAKLAAVIEPRIPMNEEDIKVKLAIVEAMDARVQFFNGIQRQISKYSLYPDSWVHFDALL	not soluble
MTNVFHHVRNFIEQQPAPAKTLEKSSSPNILYTALPKHWRSNKSFQEPFYVVLLTPVPDNTEVSIWAGNDEKPCEEVRNEKAKVHRQVAKFNDLRFVGRSGRGRKFHLTIVIHSAPMMVATVKNVIKVTVDGPRDARIPKPQGSLKRQAEQQTIFPNDIIRTPGPPMPMTMIPPPWFPLPMTQTFPPSFFPLISPGPHPSISAALWKIHSESMKTPIKQKVEQENVSLNTSTCLSSPSIFITPTSDDRKLKRPSSPRSITKSSETSINLIQETPESVESKRRRNVSITSSNSSSPTIWRPF	not soluble

— the DeepSol protein solubility set
